Measured values reported in the Human Domainome abundance scans (Beltran et al. 2025).
± gives the uncertainty stated by the source.

B1: Activity-dependent neuroprotector homeobox protein, residues 770 to 810; numbered along this chain, Q9H2P0 (parent)
chain: FLTKYFNKQPYPTRREIEKLAASLWLWKSDIASHFSNKRKK

Variants of: B1
Assay: abundance fitness (aPCA) (normalised: wild type 0, dead -1); higher = more abundant; growth selection in yeast, the domain comes from the species named
Settings: Homo sapiens

Variant	abundance fitness
FLTKYFNKQPYPRRREIEKLAASLWLWKSDIASHFSNKRKK	-0.048 ± 0.055
FLTKYFNKQPYPVRREIEKLAASLWLWKSDIASHFSNKRKK	0.088 ± 0.069
FLTKYFNKQPYPMRREIEKLAASLWLWKSDIASHFSNKRKK	0.28 ± 0.15
FLTKYFNKQPYPYRREIEKLAASLWLWKSDIASHFSNKRKK	0.083 ± 0.18
FLTKYFNKQPYPLRREIEKLAASLWLWKSDIASHFSNKRKK	0.132 ± 0.077
FLTKYFNKQPYPWRREIEKLAASLWLWKSDIASHFSNKRKK	0.221 ± 0.072
FLTKYFNKQPYPSRREIEKLAASLWLWKSDIASHFSNKRKK	-0.079 ± 0.083
FLTKYFNKQPYPQRREIEKLAASLWLWKSDIASHFSNKRKK	-0.098 ± 0.084
FLTKYFNKQPYPTRREWEKLAASLWLWKSDIASHFSNKRKK	0.18 ± 0.066
FLTKYFNKQPYPTRREDEKLAASLWLWKSDIASHFSNKRKK	-0.604 ± 0.2
FLTKYFNKQPYPTRREAEKLAASLWLWKSDIASHFSNKRKK	-0.127 ± 0.059
FLTKYFNKQPYPTRREKEKLAASLWLWKSDIASHFSNKRKK	-0.404 ± 0.09
FLTKYFNKQPYPTRRESEKLAASLWLWKSDIASHFSNKRKK	-0.455 ± 0.061
FLTKYFNKQPYPTRREVEKLAASLWLWKSDIASHFSNKRKK	-0.025 ± 0.053
FLTKYFNKQPYPTRREQEKLAASLWLWKSDIASHFSNKRKK	-0.89 ± 0.14
FLTKYFNKQPYPTRREGEKLAASLWLWKSDIASHFSNKRKK	-0.158 ± 0.055
FLTKYFNKQPYPTRREMEKLAASLWLWKSDIASHFSNKRKK	0.239 ± 0.087
FLTKYFNKQPYPTRREYEKLAASLWLWKSDIASHFSNKRKK	-0.1 ± 0.086
FLTKYFNKQPYPTRREHEKLAASLWLWKSDIASHFSNKRKK	-0.237 ± 0.06
FLTKYFNKQPYPTRREPEKLAASLWLWKSDIASHFSNKRKK	-0.296 ± 0.066
FLTKYFNKQPYPTRRECEKLAASLWLWKSDIASHFSNKRKK	-0.024 ± 0.072

Variant	abundance fitness
FLTKYFNKQPYPTRREEEKLAASLWLWKSDIASHFSNKRKK	-0.61 ± 0.11
FLTKYFNKQPYPTRRELEKLAASLWLWKSDIASHFSNKRKK	-0.019 ± 0.068
FLTKYFNKQPYPTRREREKLAASLWLWKSDIASHFSNKRKK	-0.294 ± 0.056
FLTKYFNKQPYPTRREFEKLAASLWLWKSDIASHFSNKRKK	-0.205 ± 0.079
FLTKYFNKQPYPTRRENEKLAASLWLWKSDIASHFSNKRKK	-0.687 ± 0.14
FLTKYFNKQPYPTRREIPKLAASLWLWKSDIASHFSNKRKK	-0.189 ± 0.068
FLTKYFNKQPYPTRREICKLAASLWLWKSDIASHFSNKRKK	-0.232 ± 0.069
FLTKYFNKQPYPTRREIYKLAASLWLWKSDIASHFSNKRKK	-0.378 ± 0.14
FLTKYFNKQPYPTRREIRKLAASLWLWKSDIASHFSNKRKK	0.066 ± 0.05
FLTKYFNKQPYPTRREIVKLAASLWLWKSDIASHFSNKRKK	-0.509 ± 0.063
FLTKYFNKQPYPTRREIAKLAASLWLWKSDIASHFSNKRKK	-0.025 ± 0.047
FLTKYFNKQPYPTRREIDKLAASLWLWKSDIASHFSNKRKK	-0.109 ± 0.15
FLTKYFNKQPYPTRREIKKLAASLWLWKSDIASHFSNKRKK	0.172 ± 0.062
FLTKYFNKQPYPTRREITKLAASLWLWKSDIASHFSNKRKK	-0.176 ± 0.08
FLTKYFNKQPYPTRREIMKLAASLWLWKSDIASHFSNKRKK	0.075 ± 0.41
FLTKYFNKQPYPTRREINKLAASLWLWKSDIASHFSNKRKK	-0.213 ± 0.083
FLTKYFNKQPYPTRREIIKLAASLWLWKSDIASHFSNKRKK	-0.749 ± 0.49
FLTKYFNKQPYPTRREIWKLAASLWLWKSDIASHFSNKRKK	-0.356 ± 0.11
FLTKYFNKQPYPTRREIQKLAASLWLWKSDIASHFSNKRKK	0.061 ± 0.069
FLTKYFNKQPYPTRREIHKLAASLWLWKSDIASHFSNKRKK	-0.257 ± 0.12
FLTKYFNKQPYPTRREIEELAASLWLWKSDIASHFSNKRKK	-0.241 ± 0.11

Variant	abundance fitness
FLTKYFNKQPYPTRREIEHLAASLWLWKSDIASHFSNKRKK	-0.413 ± 0.17
FLTKYFNKQPYPTRREIELLAASLWLWKSDIASHFSNKRKK	-0.63 ± 0.089
FLTKYFNKQPYPTRREIEALAASLWLWKSDIASHFSNKRKK	-0.52 ± 0.07
FLTKYFNKQPYPTRREIENLAASLWLWKSDIASHFSNKRKK	-0.144 ± 0.092
FLTKYFNKQPYPTRREIETLAASLWLWKSDIASHFSNKRKK	-0.302 ± 0.06
FLTKYFNKQPYPTRREIEQLAASLWLWKSDIASHFSNKRKK	-0.276 ± 0.089
FLTKYFNKQPYPTRREIEPLAASLWLWKSDIASHFSNKRKK	-0.864 ± 0.17
FLTKYFNKQPYPTRREIEYLAASLWLWKSDIASHFSNKRKK	-0.764 ± 0.12
FLTKYFNKQPYPTRREIEDLAASLWLWKSDIASHFSNKRKK	-0.099 ± 0.075
FLTKYFNKQPYPTRREIEVLAASLWLWKSDIASHFSNKRKK	-0.502 ± 0.082
FLTKYFNKQPYPTRREIEGLAASLWLWKSDIASHFSNKRKK	-0.221 ± 0.06
FLTKYFNKQPYPTRREIEILAASLWLWKSDIASHFSNKRKK	-0.686 ± 0.18
FLTKYFNKQPYPTRREIEWLAASLWLWKSDIASHFSNKRKK	-0.79 ± 0.2
FLTKYFNKQPYPTRREIESLAASLWLWKSDIASHFSNKRKK	-0.413 ± 0.067
FLTKYFNKQPYPTRREIECLAASLWLWKSDIASHFSNKRKK	-0.502 ± 0.11
FLTKYFNKQPYPTRREIEFLAASLWLWKSDIASHFSNKRKK	-0.944 ± 0.14
FLTKYFNKQPYPTRREIEKLEASLWLWKSDIASHFSNKRKK	-0.39 ± 0.12
FLTKYFNKQPYPTRREIEKLCASLWLWKSDIASHFSNKRKK	-0.099 ± 0.074
FLTKYFNKQPYPTWREIEKLAASLWLWKSDIASHFSNKRKK	-0.262 ± 0.12
